# Measured values taken from patent US12173330B2, “Method for producing hydroxy-L-pipecolic acid” (API CORPORATION, priority 2015, dated 2024).
# What was measured:
# [1] = Production of hydroxy-L-pipecolic acids by culture of recombinant E. coli expressing the hydroxylase (Example 5); format: cell-based, E. coli BL21 (DE3); details: for Accumulation of (4S)-hydroxy-L-proline: 120 hours; for Accumulation amount of (4S)-hydroxy-L-proline / Accumulation amount of (5S)-Hydroxy-L-pipecolic acid / Accumulation amount of L-pipecolic acid / Accumulation amount of (4R)-hydroxy-L-proline / Accumulation amount of (4S)-hydroxy-L-pipecolic acid: 20 mmol/L L-pipecolic acid in medium, 30° C.; for Accumulation of (4R)-hydroxy-L-proline: 64 hours; for Conversion of the substrate to (4S)-hydroxy-L-pipecolic acid: incubation for 64 hours
# [2] = Catalytic efficiency (kcat/Km) of L-pipecolic acid hydroxylases with L-proline (Example 3); format: biochemical; details: for hydroxy-L-proline detected from the reaction solution: L-proline as substrate, Example 3, in words; for Activity, Substrate: L-proline (cell spanning Km to kcat/Km): in words
# Experimental: Each of the obtained recombinant E. coli strains in a volume of 0.6 mL was recovered by centrifugation and was suspended in 0.5 mL of 50 mmol/L MES (2-morpholinoethanesulfonic acid) buffer at pH 6. The container containing the suspension was placed in ice-water bath to perform sonication and then spun at 12,000 rpm. The obtained supernatant was used as an enzyme solution in Example 3.
# Subsequently, 0.05 mL of 1 mol/L hydrochloric acid was added to stop the reaction.
# The reaction using L-proline as a substrate was carried out under the same conditions as in the above reaction using L-pipecolic acid.
# Then, each reaction solution was treated using 1-fluoro-2,4-dinitrophenyl-5-L-alaninamide (FDAA) (manufactured by Tokyo Chemical Industry Co., Ltd.) according to a method as described below, to obtain a FDAA-derivative of a hydroxy-L-pipecolic acid or hydroxy-L-proline included in each reaction solution.
# To the reaction solution after stopping the reaction, 0.05 mL of 1 mol/L sodium hydroxide was added for neutralization. After centrifuging the solution at 12,000 rpm, 15 μL of 0.5 mol/L borate buffer (pH 9) was added to 15 μL of the obtained supernatant, followed by further addition of 30 μL of 20 mmol/L FDAA solution in acetone and incubation at 40° C. for one hour. Subsequently, 10 μL of 1 mol/L hydrochloric acid was added to stop the derivatization reaction. The resulting solution was diluted by adding 80 μL of methanol, and then centrifuged at 12,000 rpm. The obtained supernatant was used as a FDAA derivative solution.
# The amount of produced hydroxy-L-pipecolic acid or hydroxy-L-proline was analyzed with UPLC-MS (manufactured by Waters Co.).
# An aliquot containing 5 μg of total protein was taken from each enzyme solution obtained in Example 2, loaded on each lane, and then electrophoresed on polyacrylamide gel. The obtained electrophoretogram was analyzed using the image analysis software Image Lab3.0 (manufactured by Bio-Rad Laboratories, Inc.) to determine the content of each hydroxylase. A carbonic anhydrase (manufactured by Sigma-Aldrich Co. LLC) was used as a quantification reference. The content of a hydroxylase of interest was calculated from the signal intensity of the enzyme of interest, based on the signal intensities of bands corresponding to 200 ng, 400 ng and 600 ng of the quantification reference provided for the electrophoresis.
# The catalytic efficiency of each enzyme was calculated based on the Michaelis-Menten kinetic equation.
# It is known that, in FIG. 1, the reciprocal of each intercept with the x-axis, multiplied with −1, represents a km value (mmol/L) and the reciprocal of each intercept with the y-axis represents a Vmax value (U/mg), the maximum rate of reaction.
# The catalytic ability per molecule of the enzyme (kcat) can be calculated from the Vmax and the molecular weight of the enzyme. Table 5 indicates the result of the calculation of catalytic efficiency (kcat/km), which is an index representing the catalytic ability of an enzyme, based on the obtained kcat and km values.
# [3] = Reactivity comparison of L-pipecolic acid 5-hydroxylases, substrate L-proline (Example 4); details: for Relative activity, Substrate: L-proline (hydroxy-L-proline-producing activity, 100 = hydroxy-L-pipecolic acid-producing activity): 10 mmol/L substrate, 30° C., 30 minutes; for hydroxy-L-proline detected from the reaction solution: Example 4, 10 mmol/L L-proline, in words
# Experimental: (§1) The detection of the products was based on the absorbance at a wavelength of 340 nm.
# (§2) The activity values were evaluated by the amount of a product per gram of total protein (U/g-protein).
# [4] = Reactivity comparison of L-pipecolic acid 5-hydroxylases, substrate L-pipecolic acid (Example 4); details: 10 mmol/L substrate, 30° C., 30 minutes; hydroxy-L-pipecolic acid-producing activity set to 100
# Experimental: as §1, §2
Molecule,Accumulation of (4S)-hydroxy-L-proline ([1]; in words),Accumulation amount of (4S)-hydroxy-L-proline ([1]; after 120 hours) [mmol/L],Accumulation amount of (5S)-Hydroxy-L-pipecolic acid ([1]; after 120 hours) [mmol/L],Accumulation amount of L-pipecolic acid ([1]; after 120 hours) [mmol/L],"Conversion of the substrate to (5S)-hydroxy-L-pipecolic acid ([1]; incubation for 120 hours, in words)",hydroxy-L-proline detected from the reaction solution [2],"Relative activity, Substrate: L-proline (hydroxy-L-proline-producing activity, 100 = hydroxy-L-pipecolic acid-producing activity) [3] [%]",hydroxy-L-proline detected from the reaction solution [3],"Relative activity, Substrate: L-pipecolic acid [4] [%]",Accumulation of (4R)-hydroxy-L-proline ([1]; in words),Accumulation amount of (4R)-hydroxy-L-proline ([1]; after 64 hours) [mmol/L],Accumulation amount of (4S)-hydroxy-L-pipecolic acid ([1]; after 64 hours) [mmol/L],Accumulation amount of L-pipecolic acid ([1]; after 64 hours) [mmol/L],Conversion of the substrate to (4S)-hydroxy-L-pipecolic acid ([1]; in words),"Activity, Substrate: L-proline (cell spanning Km to kcat/Km) [2]"
"SruPH: L-pipecolic acid cis-5-hydroxylase from Segniliparus rugosus ATCC BAA-974, GenBank EFV12517, SEQ ID NO: 4 (protein, listed as Segniliparus rugosus) MKSYSLGKFEDRSIDSLIEEASGLPDSAYSSAYQEYSIGLWDTATLWNERGNESGEVSEHAAAAAPTAIGRSTPRLNEFVRAKFNVDVLRAVRLFRARQGAIIIPHRDYLEHSNGFCRIHLPLVTTPGARNSENNEVYRMLPGELWFLDSNEVHSGGVLDSGTRIHLVLDFTHEHNENPAAVLKNADRLRPIARDPRISRSKLDHEALESLIRGGRVVTLAMWPALVQMLARIHLTSDAHPAELYDWLDDLADRSGNDELVAEARRMRRYFLTDGISRTPSFERFWRELDAARKGELVS",Accumulation of (4S)-hydroxy-L-proline was confirmed,1.8,22.5,0.1,almost the entire amount of the substrate was allowed to convert to (5S)-hydroxy-L-pipecolic acid,small amount of hydroxy-L-proline was detected,59,small amount of hydroxy-L-proline was detected,100,,,,,,
"XdPH: L-proline cis-4-hydroxylase from Xenorhabdus doucetiae FRM16, GenBank CDG16639, SEQ ID NO: 8 (protein, listed as Xenorhabdus doucetiae) MMSAKLLASIELNQEQIEHDLNIVGSEILDVAYSEYACGNWGTITLWNHSGDAGDQTSREYVGQARPTELGQQLDCINQLIRNNFNISLIKSVRIFRSYNGGAIYPHIDYLEFNQGFKRVHLVLKSDRSCLNSEENTVYHMLPGEVWFVDGHSAHSAMSLSRVGKYSLVLDFDSGAKFEDLYSESHTLCVDNLEPDIIHDRQPLPTSLRDSLAHIAEHADEFNIQSILFLATRFHFSYAVSIREYFQLLDECFSRNPYKSVRERYEALKDILVRSGYTSHNVNHFNSLSGVTIG",Accumulation of (4S)-hydroxy-L-proline was confirmed,0.3,15.2,10.6,,small amount of hydroxy-L-proline was detected,37,small amount of hydroxy-L-proline was detected,100,,,,,,
"SmPH: L-proline cis-4-hydroxylase from Sinorhizobium meliloti 1021, GenBank CAC47686, SEQ ID NO: 10 (protein, listed as Sinorhizobium meliloti) MSTHFLGKVKFDEARLAEDLSTLEVAEFSSAYSDFACGKWEACVLRNRTGMQEEDIVVSHNAPALATPLSKSLPYLNELVETHFDCSAVRYTRIVRVSENACIIPHSDYLELDETFTRLHLVLDTNSGCANTEEDKIFHMGLGEIWFLDAMLPHSAACFSKTPRLHLMIDFEATAFPESFLRNVEQPVTTRDMVDPRKELTDEVIEGILGFSIIISEANYREIVSILAKLHFFYKADCRSMYDWLKEICKRRGDPALIEKTASLERFFLGHRERGEVMTY",Accumulation of (4S)-hydroxy-L-proline was confirmed,0.2,9.4,5.6,,small amount of hydroxy-L-proline was detected,46,small amount of hydroxy-L-proline was detected,100,,,,,,
"KjPH: amino acid hydroxylase from Kordia jejudonensis, GenBank WP_046758372, SEQ ID NO: 18 (protein, listed as Kordia jejudonensis) MESKIIGKVNFEEHLLDKELKLIDTFEFNDSYSEYASGIWKTCMLWNRSGQKDDHLSIEHDTYVKPTEYGKQLAYVNEIIANTFKKEHIKTVRLFMCINGLIIPHKDYLEFKKGFTRIHIPLKINEHALTSEEDVVYNMQKGEIWFIEGRKIHSAANFSKVKRINLVIDFAPDIPFEELFLNSENYQPNLIPKISQRTQLKEEELGYIKGLSKIINEMNFDDILSILSKIHFYRNVSSELVFGWLDEIATASNNYNIQRKAQEVTDLLIRKGPINN",,,,,,small amount of hydroxy-L-proline was detected,,,,,,,,,
"CgPH: L-pipecolic acid trans-4-hydroxylase from Colletotrichum gloeosporioides Nara qc5, GenBank ELA34460, SEQ ID NO: 12 (protein, Colletotrichum gloeosporioides) MSDKGATLDMSLFFGTPEEKGYFCTELLRLLKLRGGVKIQNHSIPDEDIHKLFDMSRKFFALPLETKMEAKHPPQANPNRGYSFIGQENVANISGYEKGLGPGKTRDIKETLDMGSAQDDLVDNLWIPEESLPGFRGFMESFYEKAFKTEMQLLSALAIALGVSEDHMKTLHNRAENEFRLLHYPAIPATELADGTATRIAEHTDFGTITMLFQDSVGGLQVEDQTQPGVFRSVESEKPTDIILNIGDSLQRLTNDTFRAACHRVTYPPAIKARDNVQIPERYSIAYFVKPNRHASLLPLKEFITDATPCRYEDVTAWEWNNRRITKLFG",,,,,,no hydroxy-L-proline was detected,,,,no accumulation of (4R)-hydroxy-L-proline was confirmed,0,19.1,0.2,a major amount of the substrate was allowed to convert to (4S)-hydroxy-L-pipecolic acid,(No activity)
"PcPH: L-pipecolic acid trans-4-hydroxylase from Penicillium chrysogenum Wisconsin 54-1255, GenBank XP_002558179, SEQ ID NO: 14 (protein, listed as Penicillium chrysogenum) MSQALDLSLLKGSPEERDEVSAALLDTLKTRGVAKLKNHGLPEDLIAEMFDYTRRFFSLSLEDKMTAKHPPEANPNRGYSYVGQESVSSISGYEKGLPQGKTIRDIKETLDMGSPHDSLVDNIWVAEEKLPGFRKFMEDFYESCFKVELEILDALAQALEISAPDLRLLHNKAENEFRLLHYPAVPASALEDGTATRIAEHTDFGTITMLFQDSTGGLQVEDQTNLGTFHDVVSGGKSEIILNIGDSLQRLTNDTFMAACHRVTYPPTVKVGSDVVIPERYSVAYFAKPNRIASLFPLKKFITPATPCKYEDITAWDYNNLRIAKLFS",,,,,,no hydroxy-L-proline was detected,,,,no accumulation of (4R)-hydroxy-L-proline was confirmed,0,17.4,2.1,a major amount of the substrate was allowed to convert to (4S)-hydroxy-L-pipecolic acid,(No activity)
